Laboratory results taken from patent US20210340217A1, “NOVEL PEPTIDES AND COMBINATION OF PEPTIDES FOR USE IN IMMUNOTHERAPY AGAINST OVARIAN CANCER AND OTHER CANCERS” (Immatics Biotechnologies GmbH, priority 2017, published 2021).

Test system: CD8+ T cells
Test: In vitro immunogenicity for MHC class I presented peptides (in vitro priming of CD8+ T cells with aAPCs, pMHC multimer readout)
Type: cell-based, human
Conditions: not given
Procedure: In order to obtain information regarding the immunogenicity of the TUMAPs of the present invention, the inventors performed investigations using an in vitro T-cell priming assay based on repeated stimulations of CD8+ T cells with artificial antigen presenting cells (aAPCs) loaded with peptide/MHC complexes and anti-CD28 antibody. […]
Generation of pMHC/anti-CD28 coated beads, T-cell stimulations and readout was performed in a highly defined in vitro system using four different pMHC molecules per stimulation condition and 8 different pMHC molecules per readout condition. […]
800.000 beads/200 μl were coated in 96-well plates in the presence of 4×12.5 ng different biotin-pMHC, washed and 600 ng biotin anti-CD28 were added subsequently in a volume of 200 μl. […] For the pMHC multimer readout using 8 different pMHC molecules per condition, a two-dimensional combinatorial coding approach was used as previously described (Andersen et al., 2012) with minor modifications encompassing coupling to 5 different fluorochromes. […] Peptide specific cells were calculated as percentage of total CD8+ cells. […] In vitro priming of specific multimer+ CD8+ lymphocytes was detected by comparing to negative control stimulations.

Row | Substance | Wells positive [%]
1 | 773 (ALYGKLLKL; listed as Homo sapiens) [compound 773] | +++ (50%-69% = +++)
2 | 774 (VYVDDIYVI; listed as Homo sapiens) [compound 774] | +++ (50%-69% = +++)

Target: HLA-A*01:01 (Homo sapiens, UniProt P04439, A114D/A174V/A182V/D101N/D185E/E176A/E190D/L180R/Q94H/R68K/S129P/T187R/V100A/V91M/W191G)
Test: MHC binding assay (UV-ligand exchange, beta2m ELISA)
Conditions: peptide exchange yield
Outline: (§1)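 Peptide–MHC complexes formed by UV-induced exchange of a UV-cleavable peptide for the test peptide. Exchange yield measured by streptavidin-capture ELISA detecting β2m (HRP anti-β2m, TMB, A450) on 100-fold diluted samples. Quantified against refolded HLA-A*02:01/MLA-001 standards (15-500 ng/ml).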

Row | Substance | Peptide exchange
3 | 291 (ETIRSVGYY; listed as Homo sapiens) [compound 291] | +++ (>50 = +++)
4 | 31 (LLDEGAMLLY; listed as Homo sapiens) [compound 31] | ++++ (>75% = ++++)
5 | 116 (VLLDEGAMLLY; listed as Homo sapiens) [compound 116] | ++ (>20% = ++)
6 | 288 (SPVTSVHGGTY; listed as Homo sapiens) [compound 288] | ++ (>20% = ++)
7 | 292 (NVTMKVVSVLY; listed as Homo sapiens) [compound 292] | +++ (>50 = +++)
8 | 289 (RWEKTDLTY; listed as Homo sapiens) [compound 289] | ++ (>20% = ++)
9 | 112 (TVTGAEQIQY; listed as Homo sapiens) [compound 112] | ++ (>20% = ++)
10 | 115 (FVDNQYWRY; listed as Homo sapiens) [compound 115] | +++ (>50 = +++)
11 | 114 (VMEQSAGIMY; listed as Homo sapiens) [compound 114] | ++ (>20% = ++)
12 | 290 (DMDEEIEAEY; listed as Homo sapiens) [compound 290] | ++ (>20% = ++)
13 | 113 (QLDSNRLTY; listed as Homo sapiens) [compound 113] | +++ (>50 = +++)

Target: HLA-A*02:01 (Homo sapiens, UniProt P04439, D140Y/D185E/D98H/E176V/E277Q/G131W/G231S/I119V/I121R/I166T/I218V/L300P/L318F/N151K/N90K/P208A/P217A/Q86G/Q94H/R138H/R169H/T345S)
Test: as above
Conditions: peptide exchange yield
Outline: as §1

Row | Substance | Peptide exchange
14 | 224 (SLPRFQVTL; listed as Homo sapiens) [compound 224] | ++++ (>75% = ++++)
15 | 73 (FLIEELLFA; listed as Homo sapiens) [compound 73] | ++++ (>75% = ++++)
16 | 229 (ISVPAKTSL; listed as Homo sapiens) [compound 229] | + (>10% = +)
17 | 71 (YLEDTDRNL; listed as Homo sapiens) [compound 71] | ++++ (>75% = ++++)
18 | 60 (GLLSLTSTLYL; listed as Homo sapiens) [compound 60] | ++++ (>75% = ++++)
19 | 242 (STIPALHEI; listed as Homo sapiens) [compound 242] | +++ (>50 = +++)
20 | 221 (SLLDLYQL; listed as Homo sapiens) [compound 221] | ++ (>20% = ++)
21 | 217 (VSSSLTLKV; listed as Homo sapiens) [compound 217] | + (>10% = +)
22 | 231 (SVTESTHHL; listed as Homo sapiens) [compound 231] | +++ (>50 = +++)
23 | 2 (TLLKALLEI; listed as Homo sapiens) [compound 2] | ++++ (>75% = ++++)

Target: HLA-A*24:02 (Homo sapiens, UniProt P04439, D101N/D140Y/D185E/E176V/E190D/F33S/G103R/G107R/I119L/I121M/I306V/K335N/L105A/L180Q/L300P/N151K/N90K/Q86E/Q94H/R106L/R138H/R89G/T104I/T345S/V100E/W191G/Y123F)
Test: as above
Conditions: peptide exchange yield
Outline: as §1

Row | Substance | Peptide exchange
24 | 18 (KYPVHIYRL; listed as Homo sapiens) [compound 18] | ++++ (>75% = ++++)
25 | 77 (RYGPVFTV; listed as Homo sapiens) [compound 77] | ++++ (>75% = ++++)
26 | 17 (RFTTMLSTF; listed as Homo sapiens) [compound 17] | ++++ (>75% = ++++)
27 | 81 (VYNHTTRPL; listed as Homo sapiens) [compound 81] | ++++ (>75% = ++++)
28 | 252 (LYQPRASEM; listed as Homo sapiens) [compound 252] | +++ (>50 = +++)
29 | 11 (SYSDLHYGF; listed as Homo sapiens) [compound 11] | ++++ (>75% = ++++)
30 | 246 (RYLAVVHAVF; listed as Homo sapiens) [compound 246] | ++++ (>75% = ++++)
31 | 78 (SFAPRSAVF; listed as Homo sapiens) [compound 78] | ++++ (>75% = ++++)
32 | 79 (SYNEHWNYL; listed as Homo sapiens) [compound 79] | ++++ (>75% = ++++)
33 | 16 (IYSPQFSRL; listed as Homo sapiens) [compound 16] | ++++ (>75% = ++++)
34 | 12 (KYEKIFEML; listed as Homo sapiens) [compound 12] | ++++ (>75% = ++++)
35 | 249 (VYTPTLGTL; listed as Homo sapiens) [compound 249] | ++++ (>75% = ++++)
36 | 255 (VFVSFSSLF; listed as Homo sapiens) [compound 255] | +++ (>50 = +++)
37 | 80 (TAYMVSVAAF; listed as Homo sapiens) [compound 80] | +++ (>50 = +++)
38 | 82 (SYFRGFTLI; listed as Homo sapiens) [compound 82] | ++++ (>75% = ++++)
39 | 76 (KYVAELSLL; listed as Homo sapiens) [compound 76] | ++++ (>75% = ++++)
40 | 10 (RYSDSVGRVSF; listed as Homo sapiens) [compound 10] | ++++ (>75% = ++++)
41 | 15 (VYHDDKQPTF; listed as Homo sapiens) [compound 15] | ++++ (>75% = ++++)
42 | 13 (VYTFLSSTL; listed as Homo sapiens) [compound 13] | ++++ (>75% = ++++)
43 | 19 (KYVKVFHQF; listed as Homo sapiens) [compound 19] | ++++ (>75% = ++++)
44 | 14 (FYFPTPTVL; listed as Homo sapiens) [compound 14] | ++++ (>75% = ++++)
